# T1: complex I subunit ND1 (Yarrowia lipolytica) (Yarrowia lipolytica, UniProt Q9B6E8 1-341)
# T1 sequence (looked up): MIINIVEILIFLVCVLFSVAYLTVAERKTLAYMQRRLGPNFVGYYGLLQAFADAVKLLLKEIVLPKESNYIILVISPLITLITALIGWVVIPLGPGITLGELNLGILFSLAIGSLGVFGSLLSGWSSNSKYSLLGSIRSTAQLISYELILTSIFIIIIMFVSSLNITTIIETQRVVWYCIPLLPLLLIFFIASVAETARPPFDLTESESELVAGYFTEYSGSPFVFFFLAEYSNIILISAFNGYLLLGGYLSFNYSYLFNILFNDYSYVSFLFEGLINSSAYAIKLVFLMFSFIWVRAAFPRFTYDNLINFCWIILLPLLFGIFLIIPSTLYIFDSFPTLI
# Target: T1, complex I subunit ND1 (Yarrowia …)
# Assay: cryo-EM structure
binder,measurement,value
"complex I subunit ND6 (Yarrowia lipolytica) (natural protein, UniProt Q9B6E9 1-185, looked up) MMYLTYYFIEITIFLAILCTIFIISAKNPMVSILYMIALFVIAAMYLYLIGLGIFSLLYIMIYIGAIAVLFLFIITLLDINSTELSVKSNIRDLPLVLISLIVLTISGLMIYSNDSILINKLLEAFGNDYNTIITQDWFNIENTTLLTTIGNVLLTNNAFILLVLAIVLLLGIIGPISITMKHKE",binding result,binds
